Tests used:
[1] = molecular target: T1, PlyC-A, the PlyC heavy chain (C1 bacteriophage lysin, ORF 11) (C1 bacteriophage, UniProt Q7Y3F1 2-465); test: N-terminal sequencing signals of the native enzyme (55 pm PlyC-B, 12 pm PlyC-A)
T1 construct: 50 kDa subunit of the PlyC lysin; also called heavy subunit (ORF 11); plyCA gene product
T1 sequence: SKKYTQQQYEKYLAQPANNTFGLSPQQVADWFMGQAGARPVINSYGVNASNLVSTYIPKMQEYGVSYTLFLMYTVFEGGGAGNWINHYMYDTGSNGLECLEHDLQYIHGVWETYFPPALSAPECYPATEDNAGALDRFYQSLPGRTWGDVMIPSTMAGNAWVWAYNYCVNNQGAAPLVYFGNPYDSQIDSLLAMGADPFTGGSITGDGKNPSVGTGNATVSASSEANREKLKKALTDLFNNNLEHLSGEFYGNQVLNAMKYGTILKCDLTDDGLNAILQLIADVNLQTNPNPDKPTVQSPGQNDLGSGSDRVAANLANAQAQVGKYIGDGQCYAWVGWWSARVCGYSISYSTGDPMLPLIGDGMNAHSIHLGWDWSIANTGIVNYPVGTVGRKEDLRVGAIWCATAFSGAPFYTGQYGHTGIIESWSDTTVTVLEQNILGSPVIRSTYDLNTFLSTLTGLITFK

[2] = molecular target: T2, PlyC-A, the PlyC heavy chain (C1 bacteriophage lysin, ORF 11)
T2 chain: T1 sequence

[3] = molecular target: T1, PlyC-A, the PlyC heavy chain (C1 …); test: 35S-methionine labelling of purified PlyC, SDS-PAGE bands counted by scintillation (n=20), cpm per methionine
Protocol: ³⁵S-methionine labeling of PlyC. […] A fresh 20 ml overnight culture of B834/pBAD24::plyC was washed twice with M9 media, and used to inoculate a 2 L flask of M9 minimal media supplemented with 2 mCi ³⁵S-methionine (New England Nuclear). Expression of ³⁵S-Methionine-PlyC was induced with 0.5% arabinose and the enzyme was purified as described above. The heavy and light chains were resolved by SDS-PAGE using 15 μg of labeled PlyC loaded each lane (n=20). Individual bands were cut out of the gel, suspended in 1 ml of SigmaFluor scintillation fluid (Sigma), and counts per minute (cpm) of β-activity was assessed on a Beckman LS5000TD counter.
In order to achieve a mass of 100 kDa, multiple copies of one or both subunits must exist. Thus, PlyC is a multimer. Circumstantial evidence for a molar ratio of 5 light chains to one heavy chain was obtained from N-terminal sequencing of the native enzyme, which yielded a 55 pm signal for PlyC-B and a 12 pm signal for PlyC-A (data not shown). […] Therefore, to further investigate the ratios of PlyC-A and PlyC-B, we cloned plyC into B834 E. coli cells, which are auxotrophic for methionine. […] We were able to enumerate an average signal, measured in counts per minute, for each chain by placing gel-extracted bands (n=20) in scintillation fluid and measuring the β activity (Table IV). […]

B1: PlyC-B, the PlyC light chain (C1 bacteriophage lysin, ORF 9) (enzyme)
chain: SKINVNVENVSGVQGFLFHTDGKESYGYRAFINGVEIGIKDIETVQGFQQIIPSINISKSDVEAIRKAMKK
notes: 8 kDa subunit of the PlyC lysin, a 72 amino acid polypeptide; About six copies per PlyC-A are proposed in the native multimer; also called light subunit (ORF 9); plyCB gene product
molar ratio of light chains to heavy chain [1]: 5 light chains per heavy chain | PlyC lytic activity of a double transformant (pBAD33::plyCB and pBAD24::plyCA in one host) [2]: Upon induction with 0.5% arabinose, the double transformant contained PlyC activity | activity of the refolded PlyC-B and PlyC-A mixture, normalized to the native PlyC clone (FIG. 3, lane 5) [2]: reconstituted ~25% of the wild-type activity (lane 5) | lytic activity on group A streptococci (chains expressed individually, mixed, incubated 1 hr at room temperature) [2]: When both chains were mixed together and allowed to incubate at room temperature for 1 hr, again no activity was noted | lytic activity on group A streptococci after urea denaturation and refolding of the mixed chains, relative to wild-type PlyC [2]: we were able to reconstitute ~30% of wild-type activity | lytic activity on group A streptococci of a lil- chimera with full-length plyCB and plyCA [2]: a lil- chimera, which contained full-length plyCB and plyCA, possessed wild-type PlyC activity | Avg. ratio PlyC-A:PlyC-B [3]: 6.17 PlyC-B per PlyC-A
